For 1 substance, Kd results are on record in publication doi:10.1101/099465.

This assay addresses Laminin-111 (UniProt P19137). In words: SPR. Background: In SPR one partner is held on a chip, and binding of the other changes the refractive index at the surface.

By Kd is commonly meant the concentration at which binding is half-saturated. Low values mean a tighter complex, high ones a looser complex.

With VEGFA165 (ligand), the Kd turned out to be 47 nM.
